Here are results for 19 substances from PMC3656785.

The first assay deals with VipB on the GAL4 DNA-binding domain (pGBKT7) (V. cholerae). The assay can be described thus: two-hybrid.
Conditions: not given
For “VipA D104A fused to the GAL4 activation domain (pGADT7) (natural protein)”, the relative β-gal activity came out at 92.7%.

“VipA D104A/V106A fused to the GAL4 activation domain (pGADT7) (natural protein)” had a relative β-gal activity of 64.1%.

On to “VipA D104A/V106A/V110A fused to the GAL4 activation domain (pGADT7) (natural protein)”, for which the relative β-gal activity was found to be 48.8%.

Turning to “VipA V106A fused to the GAL4 activation domain (pGADT7) (natural protein)”, the relative β-gal activity worked out at 92.4%.

Substance “VipA V110A fused to the GAL4 activation domain (pGADT7) (natural protein)” gave a relative β-gal activity of 74.6%.

For the substance “VipA fused to the GAL4 activation domain (pGADT7) (natural protein)”, the relative β-gal activity was 100%.

A further assay has as its target VipB fused to the zinc finger DNA-binding domain of murine Zif268.
Assay: not given
The conditions noted are these: parent: est. 680; read off a plot.
Regarding “VipA fused to the ω subunit of E. coli RNAP D104A”, the response is 460 Miller units.

On to “VipA fused to the ω subunit of E. coli RNAP D104A; V106A”, for which the response was 230 Miller units.

For “VipA fused to the ω subunit of E. coli RNAP D104A; V106A; V110A”, the response came to 120 Miller units.

As to “VipA fused to the ω subunit of E. coli RNAP D104A; V106A; V110A; L113A”, the response was found to be 90 Miller units.

Take “VipA fused to the ω subunit of E. coli RNAP E112A”: the response was 720 Miller units.

“VipA fused to the ω subunit of E. coli RNAP L113A”: the response was 490 Miller units.

With “VipA fused to the ω subunit of E. coli RNAP P111A”, the response is 590 Miller units.

With “VipA fused to the ω subunit of E. coli RNAP Q109A”, the response turned out to be 630 Miller units.

“VipA fused to the ω subunit of E. coli RNAP Q109A; V110I”: the response was 710 Miller units.

On to “VipA fused to the ω subunit of E. coli RNAP S108A”, for which the response was found to be 720 Miller units.

“VipA fused to the ω subunit of E. coli RNAP V106A”: the response was found to be 460 Miller units.

Take “VipA fused to the ω subunit of E. coli RNAP V110A”: the response is 430 Miller units.

For “VipA fused to the ω subunit of E. coli RNAP V110A; L113A”, the response was 120 Miller units.
